From patent publication US5733879A, “Peptides and proteins, process for their preparation and their use as cholesterol acceptors” (N.V. Innogenetics, S.A., priority 1992, dated 1998)
Entries after “also recorded” stand apart in the source; their conditions may differ. Where no end group is shown, it is not given here.

Key:
[1] = Percentage of alpha-helix structure by ATR infrared spectroscopy; assay type: physicochemical; conditions: for percentage of alpha-helix structure, peptide, IR: free peptide; for percentage of alpha-helix structure, DMPC/peptide, IR: phospholipid-peptide (DMPC) complex
Text: Table 1: corresponds to the percentage of alpha-helix structure in the free peptide and in the phospholipid-peptide (DMPC) complexes as determined by infrared spectroscopy (IR) and circular dichroism (CD).
Attenuated Total Reflection (ATR) infrared spectroscopy was used for the determination of the relative orientation of the apolipoprotein alpha-helical segments and of the phospholipid acyl chains as previously described for apo AI and apo AI-phospholipid complexes and for LDL (Vanloo et at., 1991). For these measurements, a 70 μL solution of 20 μg isolated complex in a 0.005M Tris-HCl buffer pH 8.4, was spread on a ATR Germanium crystal plate. Deuteration of the sample was performed by flushing N2, saturated with D2 O, in a sealed universal Perkin-Elmer sample holder, at room temperature for 3 hours, in order to avoid overlapping of the absorption bands for random and alpha-helical structures.
Spectra were recorded on a Perkin Elmer 1720X infrared spectrophotometer, using polarized incident light with a perpendicular (90°) and parallel (0°) orientation. A dichroic spectrum was obtained by substracting the spectrum recorded with polarized light at 0° from that at 90°. A positive deviation on the dichroic spectrum indicates a dipole preferentially oriented close to a normal to the plane, while a larger absorbance at 0° is indicative of a dipole oriented close to the Ge crystal plane. The angle between a normal to the Ge crystal and the dipole is obtained from the calculation of the dichroic ratio Ratr =A(90°)/A(0°), representing the ratio of the absorbances on the spectra recorded with polarized light at 90° and 0° . For each experiment, up to 15 scans were stored and averaged.

[2] = GdmCl denaturation followed by Trp maximal emission wavelength; assay type: physicochemical; conditions: free peptide or protein
[3] = target: T1, semi-purified LCAT enzyme (Homo sapiens, UniProt P04180); assay: LCAT activation properties of the phospholipid-peptide complexes (HPLC of cholesteryl esters); assay type: biochemical; conditions: for Vmax compared with other complexes / apo AI-phospholipid complexes: Lineweaver-Burk plots; for Vmax (LCAT activation): PLPC/cholesterol/peptide discoidal complex as substrate, apparent kinetic constant, 37° C.; for kinetics of cholesterol esterification by LCAT (time course): discoidal complexes with PLPC and cholesterol, 0-24 h; for Vmax/Km A % of apo A1 (LCAT activation): relative to apo AI-phospholipid complex = 100
T1 construct: corresponds to the concentration relative to that in plasma by a factor of 5100, with the major contaminant being albumin; from tissue
T1 sequence (P04180 25-440): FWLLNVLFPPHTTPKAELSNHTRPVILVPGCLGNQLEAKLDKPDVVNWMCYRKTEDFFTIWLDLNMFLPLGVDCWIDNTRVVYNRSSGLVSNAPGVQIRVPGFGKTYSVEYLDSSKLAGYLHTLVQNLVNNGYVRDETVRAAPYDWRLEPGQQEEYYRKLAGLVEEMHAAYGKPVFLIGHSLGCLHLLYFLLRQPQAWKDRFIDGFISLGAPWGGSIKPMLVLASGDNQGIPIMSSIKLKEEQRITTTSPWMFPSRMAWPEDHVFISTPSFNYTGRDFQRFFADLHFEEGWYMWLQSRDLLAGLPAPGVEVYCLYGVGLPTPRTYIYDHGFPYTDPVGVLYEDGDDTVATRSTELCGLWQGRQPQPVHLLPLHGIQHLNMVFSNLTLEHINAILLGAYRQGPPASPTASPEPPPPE
Description: The activity of the LCAT enzyme with the various peptide-lipid complexes as substrates was determined by measuring the mount of cholesteryl esters generated during the enzymatic reaction by HPLC (Vercaemst et al., 1989).
The assay mixture consisted of variable mounts of complexes at cholesterol concentrations varying between 5 and 100 μM, 5 mg defatted bovine serum albumin (Sigma), 6 mM beta-mercaptoethanol in a reaction volume of 0.2 ml. After a preincubation of 20 min at 37° C., the enzymatic reaction was initiated by adding 3-6 μl of the semi-purified LCAT enzyme. The reaction was followed at 37° C. and was stopped by extraction of the incubation mixture with hexane-isopropanol 3:2, v/v. The solvent mixture contained either cholesteryl heptadecanoate (Sigma) or beta-sitosterol (Sigma) as internal standards for respectively cholesteryl esters and unesterified cholesterol quantification.
The unesterified cholesterol and the cholesteryl esters are identified and quantified by isocratic HPLC on a reversed-phase Zorbax ODS column, eluted with acetonitrile-isopropanol at a ratio of 90:10 v/v for unesterified cholesterol and of 50:50 v/v for cholesteryl esters. Detection was performed by measuring the UV absorbance at 205-210 nm. At a column temperature of 50° C. and with a flow-rate of 1.2 ml/min, the separation is completed within 25 min (Vercaemst et al., 1989). The sensitivity of this HPLC technique is similar to that of the conventional radioactive assay for polyunsaturated lecithin substrates (50 ng), and is about twice as low for saturated lecithins (80 ng).
The time course of cholesterol esterification by the LCAT enzyme with discoidal substrates consisting of PLPC, cholesterol, and the synthetic peptides, was followed between 0 and 24 h (Jonas, 1987). For the determination of the kinetic parameters, the initial velocities were determined in the linear portion of the curves, i.e. between 0-30% cholesteryl esters formation. The sample concentrations were in the range of 5×10^-7 to 5×10^-6 M with a constant enzyme volume of 5 μl, so that a linear production of cholesteryl esters formation was measured within 10 min at 37° C.
The initial kinetics (Vo) as a function of the apoprotein or peptide (C) concentrations were analyzed using a Lineweaver-Burk plot of 1/Vo versus 1/C. Linear regression analysis yielded the apparent kinetic parameters: Vmax, Km and Vmax/Km for each apoprotein or peptide-lipid complex. All kinetic experiments were performed at least three times and Vmax and Km values were expressed as mean ±error on the intercept and slope of the regression line.
The kinetics of the reaction of the semi-purified LCAT enzyme with discoidal complexes generated between the peptides, PLPC and cholesterol as substrate were followed between 0 and 24 h, and compared with those of the apo AI/PLPC/cholesterol complexes. The expression "semi-purified" corresponds to the concentration relative to that in plasma by a factor of 5100, with the major contaminant being albumin. The time course of the reaction, expressed as the percentage of esterified cholesterol as compared with the original substrate is shown on FIGS. 5a, 5b and 6 and in Table 2. […] After 24 h, more than 90% of the initial cholesterol present in all substrates was converted into cholesteryl esters (FIG. 5a).

[4] = Turbidity decrease at 325 nm on complex formation with DMPC vesicles (lipid binding); conditions: from turbidity decrease with DMPC vesicles, 15-25° C.
Description: FIG. 1 represents the turbidity decrease (on the y-axis, expressed as E/Eo, with E being the turbidity measured at different temperature points and Eo being the turbidity measured at 15° C.) at 325 nm upon the formation of complexes with DMPC vesicles as a function of the temperature (°C.), (x-axis) and on which:
The formation of small discoidal particles between DMPC vesicles and the peptides was monitored by measuring the turbidity decrease at 325 nm as a function of temperature. […] The turbidity decrease initiated by the peptide-lipid association started already at 17° C., below the DMPC transition temperature and stabilized around 23° C. The turbidity decrease enables to determine the binding affinity of lipids to the peptides of the invention. M 1 has a strong lipid binding capacity while 18A and M4 have quite similar lipid binding affinity. The lipid binding of M3 is low compared with the other peptides.

Row | Vmax compared with other complexes / apo AI-phospholipid complexes [3] | Vmax (LCAT activation) [3] [nmol CE/h] | kinetics of cholesterol esterification by LCAT (time course) [3] | Vmax/Km A % of apo A1 (LCAT activation) [3] [%] | lipid binding capacity / affinity [4] | time at which plateau of esterification was reached ([3]; saturable kinetics) [h] | Substance | percentage of alpha-helix structure, peptide, IR [1] [%] | percentage of alpha-helix structure, DMPC/peptide, IR [1] [%] | midpoint of the GdmCl denaturation transition, free peptide [2]
1 |  | 0.33 | low rate of cholesterol esterification | 3.3 |  |  | EWLKAEYEKVLEKLKELF [M2] | 36 | 50 | immediately
2 | two to three times lower | 1.53 | fastest kinetics |  | quite similar |  | EWLEAFYKKVLEKLKELF [M4] | 35 | 58 | around 0.1 M
3 | considerably lower | 0.33 | low rate of cholesterol esterification | 10.7 | low |  | EWLKAEYEKVEEKLKELF [M3] | 43 | 61 | around 0.1 M

Row | Substance | Vmax compared with other complexes / apo AI-phospholipid complexes [3] | Vmax (LCAT activation) [3] [nmol CE/h] | kinetics of cholesterol esterification by LCAT (time course) [3] | Vmax/Km A % of apo A1 (LCAT activation) [3] [%] | lipid binding capacity / affinity [4] | time at which plateau of esterification was reached ([3]; saturable kinetics) [h] | percentage of alpha-helix structure, peptide, IR [1] [%] | percentage of alpha-helix structure, DMPC/peptide, IR [1] [%] | midpoint of the GdmCl denaturation transition, free peptide [2]
4 | EWLKAFYKKVLEKLKELF [M1] | two to three times lower; also recorded: considerably lower | 2.41 | fastest kinetics | 15.4 | strong |  | 29 | 50 | around 0.3 M
5 | apo AI: native plasma apo AI purified from human plasma; major apoprotein constituent of HDL |  | 5.89 | fastest kinetics | 100.0 |  | 2 to 4 | 39 | 49 | 1.3 M
